Test results published in patent publication US7977317B2, “Compositions and methods for modulating blood-brain barrier transport” (Raptor Pharmaceutical Inc., priority 2001, dated 2011).
Like-named read-outs stand apart in the source and are kept apart here.

Key:
[1] = test system: LRP1B; assay: RT-PCR after p97 treatment in MG1391 fibroblast cells: LRP1B; format: cell-based; details: fibroblast cell line MG1391, RT-PCR (FIGS. 40 and 41)
Description: FIG. 39 show the expression of members of the LDL receptor family in MG1391. RT-PCR. RT-PCR was performed for members of the LDL-R family: LRP, LRP1B, megalin, LDL, VLDL, LRP8, LR11, LRP5 and cubulin. DNA (cDNA) synthesis was performed with 1 μg of total RNA using a cDNA one step synthesis kit (Invitrogen, USA) following the manufacturer's protocol. (1× of reaction mix, RNA 1 μg, 0.2 μM of both primers, 1 μl of RT/Platinum Tag mix). The cDNA generated was amplified using primers produced with MacVector 7.0 (Oxford molecular Ltd, Oxford, UK). All the subsequent assays were then performed under conditions that produced amplifications of cDNA within a linear range. RT inverse-transcription was performed at 50° C. for 30 min. PCR amplification for 35 or 40 cycles for all was performed as follows: denaturation at 94° C. for 30 s, annealing at 60° C. for 30 s and extension at 72° C. for 1 min. Finalisation stage was performed at 72° C. for 5 min. Tubes containing all the ingredients except templates were included in all runs and served as negative controls. The amplified PCR products were electrophoresed on a 1% agarose gel in TAE (40 mM Tris, […], 1 mM EDTA, […] Ethidum bromide) and were visualized under ultraviolet light followed by densitrometric analysis.

[2] = test system: BBCEC monolayers; assay: Sucrose permeability of BBCEC monolayers (in vitro BBB model) in the presence of p97; format: cell-based, bovine
Description: FIG. 2. Effect of p97 (1 μm) on sucrose permeability with BBCECs that were preincubated for 2 hrs at 37° C. The effect of p97 at 1 μM on sucrose permeability of the in vitro BBB model was tested. The permeability coefficient (Pe) for sucrose was calculated as previously described (Dehouck, et al., J. Neurochem., 58:1790-179 (1992)) using filters coated or non-coated with BBCE cells. Briefly, coated or non-coated filters with BBCE cells were transferred to 6-well plates containing 2 ml of Ringer/Hepes per well (basolateral compartment) for 2 hrs at 37° C. In each apical (i.e., luminal) chamber, the culture medium was replaced by 1 ml Ringer/Hepes containing labeled [^14C]-sucrose. […] At the end of the experiments, amounts of the radiotracers in the basolateral (i.e., abluminal) compartment were measured in a liquid scintillation counter. The permeability coefficient (Pe) was calculated as described in FIG. 1.
FIG. 14 illustrates the stability of p97 and integrity of the BBCEC monolayers following p97 transcytosis. […] The gels were dried and scanned to quantify the amount of intact p97 that crossed the BBCEC monolayers at 37° C. and 4° C. […]
D. Sucrose permeability. The permeability coefficient for sucrose was measured to verify the endothelial permeability and the integrity and tightness of the BBCEC monolayers, as previously described, using uncoated filters or coated with endothelial cells. […]

[3] = target: BBCEC monolayers; details: −saponin, cited from earlier work

Row | Molecule | Expression of LRP1B in MG1391 cells [1] | Change in sucrose permeability by p97 ([2]; 1 micromolar p97 (FIG. 2)) | Clearance of sucrose in the presence of p97 ([2]; high concentration of p97 (FIG. 14c)) | Kd ([3]; Site 1, published value) | Kd ([3]; Site 2, published value)
1 | p97: recombinant human melanotransferrin (p97), provided by Synapse Technologies (protein, UniProt P08582 20-709, looked up) Melanotransferrin: GMEVRWCATSDPEQHKCGNMSEAFREAGIQPSLLCVRGTSADHCVQLIAAQEADAITLDGGAIYEAGKEHGLKPVVGEVYDQEVGTSYYAVAVVRRSSHVTIDTLKGVKSCHTGINRTVGWNVPVGYLVESGRLSVMGCDVLKAVSDYFGGSCVPGAGETSYSESLCRLCRGDSSGEGVCDKSPLERYYDYSGAFRCLAEGAGDVAFVKHSTVLENTDGKTLPSWGQALLSQDFELLCRDGSRADVTEWRQCHLARVPAHAVVVRADTDGGLIFRLLNEGQRLFSHEGSSFQMFSSEAYGQKDLLFKDSTSELVPIATQTYEAWLGHEYLHAMKGLLCDPNRLPPYLRWCVLSTPEIQKCGDMAVAFRRQRLKPEIQCVSAKSPQHCMERIQAEQVDAVTLSGEDIYTAGKTYGLVPAAGEHYAPEDSSNSYYVVAVVRRDSSHAFTLDELRGKRSCHAGFGSPAGWDVPVGALIQRGFIRPKDCDVLTAVSEFFNASCVPVNNPKNYPSSLCALCVGDEQGRNKCVGNSQERYYGYRGAFRCLVENAGDVAFVRHTTVFDNTNGHNSEPWAAELRSEDYELLCPNGARAEVSQFAACNLAQIPPHAVMVRPDTNIFTVYGLLDKAQDLFGDDHNKNGFKMFDSSNYHGQDLLFKDATVRAVPVGEKTTYRGWLGLDYVAALEGMSSQQC | particularly induces the expression | no significant change | No significant increase |  | 
2 | lactoferrin: lactoferrin (Lf), LRP ligand used as competitor (protein, UniProt P02788 20-710, looked up) Lactotransferrin: GRRRSVQWCAVSQPEATKCFQWQRNMRKVRGPPVSCIKRDSPIQCIQAIAENRADAVTLDGGFIYEAGLAPYKLRPVAAEVYGTERQPRTHYYAVAVVKKGGSFQLNELQGLKSCHTGLRRTAGWNVPIGTLRPFLNWTGPPEPIEAAVARFFSASCVPGADKGQFPNLCRLCAGTGENKCAFSSQEPYFSYSGAFKCLRDGAGDVAFIRESTVFEDLSDEAERDEYELLCPDNTRKPVDKFKDCHLARVPSHAVVARSVNGKEDAIWNLLRQAQEKFGKDKSPKFQLFGSPSGQKDLLFKDSAIGFSRVPPRIDSGLYLGSGYFTAIQNLRKSEEEVAARRARVVWCAVGEQELRKCNQWSGLSEGSVTCSSASTTEDCIALVLKGEADAMSLDGGYVYTAGKCGLVPVLAENYKSQQSSDPDPNCVDRPVEGYLAVAVVRRSDTSLTWNSVKGKKSCHTAVDRTAGWNIPMGLLFNQTGSCKFDEYFSQSCAPGSDPRSNLCALCIGDEQGENKCVPNSNERYYGYTGAFRCLAENAGDVAFVKDVTVLQNTDGNNNEAWAKDLKLADFALLCLDGKRKPVTEARSCHLAMAPNHAVVSRMDKVERLKQVLLHQQAKFGRNGSDCPDKFCLFQSETKNLLFNDNTECLARLHGKTTYEKYLGPQYVAGITNLKKCSTSPLLEACEFLRK |  |  |  | 35 nM | 1900 nM
